Target: T1, EBP1-GST (UniProt Q96327-3 1-401)
T1 sequence: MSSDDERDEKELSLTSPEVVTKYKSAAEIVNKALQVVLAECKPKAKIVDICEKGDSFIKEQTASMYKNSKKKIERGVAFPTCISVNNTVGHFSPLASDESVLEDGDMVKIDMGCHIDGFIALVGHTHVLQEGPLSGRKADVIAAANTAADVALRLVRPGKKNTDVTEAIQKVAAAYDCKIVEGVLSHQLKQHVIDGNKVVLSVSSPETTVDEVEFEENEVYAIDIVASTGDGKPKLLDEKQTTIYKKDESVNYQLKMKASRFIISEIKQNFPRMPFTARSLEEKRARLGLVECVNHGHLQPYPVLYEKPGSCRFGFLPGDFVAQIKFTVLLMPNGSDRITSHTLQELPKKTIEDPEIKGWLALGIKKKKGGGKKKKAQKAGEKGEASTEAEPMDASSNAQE
Assay: EMSA; 100 ng EBP1-GST, 100 pg probe; competition with unlabeled CCACGTC DNA; 10 mM Tris pH 7.5, 50 mM KCl, 1 mM MgCl2, 5% glycerol, 0.5 mM DTT, 0.2 mg/mL BSA, 0.5 mg/mL polyglutamate; room temperature 20 min; 6% native PAGE
Conditions: protein: recombinant; tags: GST; label: FITC; blunt

B1: CML38 promoter CCACGTC probe (dsDNA)
DNA 1: AACACTAATCTACCACGTCTATTACACACA
DNA 2: TGTGTGTAATAGACGTGGTAGATTAGTGTT
binding result: binds

— publication PMC6195255, “EBP1 nuclear accumulation negatively feeds back on FERONIA-mediated RALF1 signaling”
